This is an account of results in article PMC12705702, “Structural insights into the atypical filament assembly of pyrin domain-containing IFI16” (The EMBO Journal, 2025).

This series deals with the molecule itself. The series is described as follows: cryo-EM structure; filament auto-assembled by recombinant IFI16^PYD; 73 uM in 40 mM HEPES pH 7.4, 160 mM NaCl, 1 mM EDTA, 1 mM DTT; helical reconstruction, 3.3 Å.

B1: human IFI16 pyrin domain (IFI16^PYD, residues 1-94) with C-terminal His6-tag (domain or fragment, UniProt Q16666 1-94, looked up)
chain: MGKKYKNIVLLKGLEVINDYHFRMVKSLLSNDLKLNLKMREEYDKIQIADLMEEKFRGDAGLGKLIKIFEDIPTLEDLAETLKKEKLKVKGPAL
notes: Interferon-inducible protein 16 (IFI16), human, pyrin domain, residues 1-94; Assembles into a helical filament; the number of protomers in a filament is open-ended; also called recombinant IFI16^PYD; pET21b IFI16^PYD-His6; source: E. coli BL21(DE3), purified (Ni-NTA, Superdex 75 size exclusion)
In the case of B1, the binding result is “binds”.
